# Test results as given in patent publication US20160039943A1 (TRANSLATIONAL SCIENCES, published 2016).
# B1: pork trypsin (enzyme, UniProt P00761 9-231, looked up)
# chain: IVGGYTCAANSIPYQVSLNSGSHFCGGSLINSQWVVSAAHCYKSRIQVRLGEHNIDVLEGNEQFINAAKIITHPNFNGNTLDNDIMLIKLSSPATLNSRVATVSLPRSCAAAGTECLISGWGNTKSSGSSYPSLLQCLKAPVLSDSSCKSSYPGQITGNMICVGFLEGGKDSCQGDSGGPVVCNGQLQGIVSWGYGCAQKNKPGVYTKVCNYVNWIQQTIAAN
# B2: native human α2-antiplasmin (other, UniProt P08697 40-491, looked up)
# chain: NQEQVSPLTLLKLGNQEPGGQTALKSPPGVCSRDPTPEQTHRLARAMMAFTADLFSLVAQTSTCPNLILSPLSVALALSHLALGAQNHTLQRLQQVLHAGSGPCLPHLLSRLCQDLGPGAFRLAARMYLQKGFPIKEDFLEQSEQLFGAKPVSLTGKQEDDLANINQWVKEATEGKIQEFLSGLPEDTVLLLLNAIHFQGFWRNKFDPSLTQRDSFHLDEQFTVPVEMMQARTYPLRWFLLEQPEIQVAHFPFKNNMSFVVLVPTHFEWNVSQVLANLSWDTLHPPLVWERPTKVRLPKLYLKHQMDLVATLSQLGLQELFQAPDLRGISEQSLVVSGVQHQSTLELSEVGVEAAAATSIAMSRMSLSSFSVNRPFLFFIFEDTTGLPLFVGSVRNPNPSAPRELKEQQDSPGNKDFLQSLKGFPRGDKLFGPDLKLVPPMEEDYPQFGSPK
# modifications: radioiodinated (125I) in the binding assays
# notes: mature; Bought native protein; also called native human α2-AP; native α2-AP
# B3: micro-plasmin (enzyme, human, UniProt P00747 562-810, looked up)
# chain: APSFDCGKPQVEPKKCPGRVVGGCVAHPHSWPWQVSLRTRFGMHFCGGTLISPEWVLTAAHCLEKSPRPSSYKVILGAHQEVNLEPHVQEIEVSRLFLEPTRKDIALLKLSSPAVITDKVIPACLPSPNYVVADRTECFITGWGETQGTFGAGLLKEAQLPVIENKVCNRYEFLNGRVQSTELCAGHLAGGTDSCQGDSGGPLVCFEKDKYILQGVTSWGLGCARPNKPGVYVRVSRFVTWIEGVMRNN
# notes: domain: micro-plasmin; Made as in Reed et al., 1999; also called human micro-plasmin
# Columns and labels:
# [1] = target: B2; assay: k1, rate constant of reversible complex formation, from continuous inhibition kinetics with S-2251
# Description: (§1) Native α₂-AP (1.8 μM) was pre-incubated with or without of MAbs (49, 77, Dig-control; 1.8 μM or RWR 1.8 μM and 18 μM) for 60 min at 4° C. The fast inhibition of plasmin, micro-plasmin and trypsin was examined by a continuous method as described (Wiman, B. and Collen, D. On the kinetics of the reaction between human antiplasmin and plasmin. Eur J Biochem 1978; 84: 573-578). The serine protease (20 nM) was added to a cuvette containing S-2251 (500 μM) in 300 μl of TBS buffer, and the change in absorbance at 405 nm was recorded at 0.1-min intervals prior to and after the addition of 10 μl of α₂-AP (1.8 μM) or preformed α₂-AP/MAb complex. The final concentration of α₂-AP in the cuvette was 60 nM. The percentage of residual protease activity was calculated from the initial value (defined as 100%). The inhibition constant (i.e., k₁, the rate constant of reversible complex formation) was determined as described (Turner et al., 2002, J Biol. Chem. 277:33068-33074).
# human Lys-plasmin [2] = target: T1, human Lys-plasmin (human, UniProt P00747 97-810); assay: cell-based or functional assay
# human Lys-plasmin [3] = target: T1, human Lys-plasmin; assay: k1, rate constant of reversible complex formation, from continuous inhibition kinetics with S-2251
# Description: as §1
Binder,kon [1] [M⁻¹ s⁻¹],stoichiometry of inhibition (SI) (human Lys-plasmin [2]),kon (human Lys-plasmin [3]) [M⁻¹ s⁻¹]
B1,476000,–,–
B2,–,1.1,> 2.6e+06
B3,33000,–,–
